Assay results from patent US20220025045A1 (INNATE PHARMA, published 2022).

Key:
Mutant D4-1B = molecular target: T1, Mutant D4-1B; test: flow cytometry titration on cells transfected with ILT2 mutant 4-1b
T1 construct: D4 domain point mutant; also called ILT2 mutant 4-1b

Mutant D4-4 = molecular target: T2, Mutant D4-4; test: flow cytometry titration on cells transfected with ILT2 mutant 4-4
T2 construct: D4 domain point mutant; also called ILT2 mutant 4-4

ILT2 mutant 4-2 = molecular target: T3, ILT2 mutant 4-2 (human, UniProt Q8NHL6 24-650); test: flow cytometry titration on cells transfected with ILT2 mutant 4-2
T3 construct: Transfected in HEK293T cells
T3 sequence (Q8NHL6 other isoform, or with tags, fused parts or gaps mutant): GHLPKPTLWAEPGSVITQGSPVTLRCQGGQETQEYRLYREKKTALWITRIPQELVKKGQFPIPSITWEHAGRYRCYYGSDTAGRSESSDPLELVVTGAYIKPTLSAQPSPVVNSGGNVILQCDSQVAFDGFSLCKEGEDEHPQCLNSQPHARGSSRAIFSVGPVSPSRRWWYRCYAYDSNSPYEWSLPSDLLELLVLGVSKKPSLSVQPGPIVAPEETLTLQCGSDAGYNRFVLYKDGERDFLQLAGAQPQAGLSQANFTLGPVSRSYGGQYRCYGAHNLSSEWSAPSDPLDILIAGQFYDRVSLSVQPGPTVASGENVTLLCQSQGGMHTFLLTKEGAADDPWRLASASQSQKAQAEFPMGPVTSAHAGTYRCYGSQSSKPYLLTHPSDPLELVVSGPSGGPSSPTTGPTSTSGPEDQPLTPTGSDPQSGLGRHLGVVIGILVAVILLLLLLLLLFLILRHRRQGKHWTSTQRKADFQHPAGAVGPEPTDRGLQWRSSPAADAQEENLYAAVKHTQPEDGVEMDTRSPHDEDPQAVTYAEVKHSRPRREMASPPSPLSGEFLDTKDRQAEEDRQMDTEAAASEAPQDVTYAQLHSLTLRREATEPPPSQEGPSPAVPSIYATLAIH

[1] = molecular target: T4, human ILT-2 (LILRB1), complete form expressed at the cell surface (human, UniProt Q8NHL6 24-650); test: flow cytometry, CHO-ILT2 cells
T4 construct: also called CHO-ILT2; CHO ILT2 cell line
T4 sequence (Q8NHL6 24-650): as the sequence (Q8NHL6 other isoform, or with tags, fused parts or gaps mutant) above, with G328W, H330Q, A347R, A349T, S350Y, A355Y counted along it

[2] = molecular target: T5, recombinant human ILT2 protein (analyte in SPR and Octet) (human, UniProt Q8NHL6 24-458, limits assumed); test: BLI (Octet RED96), mAb captured on AMC biosensor, 1:1 model
T5 construct: also called Human ILT2 recombinant proteins
T5 sequence (Q8NHL6 24-458 limits assumed): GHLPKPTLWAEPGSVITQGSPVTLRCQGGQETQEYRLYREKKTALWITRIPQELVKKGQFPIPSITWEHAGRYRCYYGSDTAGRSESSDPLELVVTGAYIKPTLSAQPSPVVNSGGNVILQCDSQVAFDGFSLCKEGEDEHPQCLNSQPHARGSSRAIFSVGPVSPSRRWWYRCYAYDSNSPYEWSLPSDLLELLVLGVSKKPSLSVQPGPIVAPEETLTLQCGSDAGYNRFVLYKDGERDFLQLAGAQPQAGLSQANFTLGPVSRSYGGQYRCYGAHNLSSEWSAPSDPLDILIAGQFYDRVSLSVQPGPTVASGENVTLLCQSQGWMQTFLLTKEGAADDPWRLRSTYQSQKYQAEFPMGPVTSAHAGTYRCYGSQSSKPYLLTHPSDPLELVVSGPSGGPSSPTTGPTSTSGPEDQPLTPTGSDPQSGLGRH

[3] = molecular target: T5, recombinant human ILT2 protein (analyte …); test: SPR, mAb captured on Protein-A, monovalent, two state reaction
Procedure: Measurements were performed on a Biacore T200 apparatus (Biacore GE Healthcare) at 25° C. In all Biacore experiments HBS-EP+ (Biacore GE Healthcare) and NaOH 10 mM served as running buffer and regeneration buffer respectively. Sensorgrams were analyzed with Biacore T100 Evaluation software. Protein-A was purchased from (GE Healthcare). Human ILT2 recombinant proteins were cloned, produced and purified at Innate Pharma. Protein-A proteins were immobilized covalently to carboxyl groups in the dextran layer on a Sensor Chip CMS. The chip surface was activated with EDC/NHS (N-ethyl-N′-(3-dimethylaminopropyl) carbodiimidehydrochloride and N-hydroxysuccinimide (Biacore GE Healthcare)). Protein-A was diluted to 10 μg/ml in coupling buffer (10 mM acetate, pH 5.6) and injected until the appropriate immobilization level was reached (i.e. 600 RU). Deactivation of the remaining activated groups was performed using 100 mM ethanolamine pH 8 (Biacore GE Healthcare). […] For blank subtraction, cycles were performed again replacing ILT2 proteins with running buffer. The monovalent affinity analysis was conducted following a regular Capture-Kinetic protocol as recommended by the manufacturer (Biacore GE Healthcare kinetic wizard). […]

| Binder | EC50 (read off the curve) (Mutant D4-1B) | EC50 (read off the curve) (Mutant D4-4) | koff [3] | further results |
| --- | --- | --- | --- | --- |
| 26D8 (antibody, human IgG1, V domains shown) VH: QVQLQQSGAELVKPGASVKLSCKASGYTFTEHTIHWIKQRSGQGLEWIGWFYPGSGSMKYNEKFKDKATLTADKSSSTVYMELTRLTSEDSAVYFCARHTNWDFDYWGQGTTLTVSS VL: DIVLTQSPASLAVSLGQRATISCKASQSVDYGGDSYMNWYQQKPGQPPKLLIYAASNLESGIPARFSGSGSGTDLTLNIHPVEEDDAAMYYCQQSNEEPWTFGGGTKLEIK | ~0.2 µg/mL | – | – | – |
| 18E1 (antibody, human IgG1, V domains shown) VH: QVQLQQSGAELVKPGASVRLSCKASGYTFTAHTIHWVKQRSGQGLEWIGWLYPGSGSIKYNEKFKDKATLTADKSSSTVYMELSRLTSEDSAVYFCARHTNWDFDYWGQGTTLTVSS VL: NIVLTQSPASLAVSLGQRATISCKASQSVDYGGASYMNWYQQKPGQPPKLLIYAASNLESGIPARFSGSGSGTDLTLNIHPVEEEDAAMYYCQQSNEEPWTFGGGTKLEIK | ~0.3 µg/mL | ~0.3 µg/mL | – | – |
| 27C10 (antibody, human IgG1, V domains shown) VH: EVQLQESGPGLVKPSQSLSLTCSVTGYSITSGYYWNWIRQFPENKLEWMGYIRYDGSNNYNPSLNNRISITRDASKNQFFLKLNSVTTEDTATYYCARGWLLWFYAVDYWGQGTSVTVSS VL: DVVMTQTPLSLPVSLGDQASISCRSSQSIVHTNGNTYLEWYLQKSGQSPKLLIYKVSNRLSGVPDRFSGSGSGTDFTLKISRVEAEDLGIYYCFQGSHVPWTFGGGTKLEIK | ~0.5 µg/mL | ~0.5 µg/mL | – | EC50 (read off the curve) (ILT2 mutant 4-2): ~0.6 µg/mL |
| GHI/75 (antibody, V domains shown) VH: EVILVESGGALVRPGGSLKLSCAASGFTFSSNAMSWVRQTPEKRLEWVATISNGGTFTYYPDSVKGRFTISRDNAKNTLYLQMNSLRSEDTAMYYCARHGDGNYGDPLDYWGQGTTLTVSS VL: DIQMTQSPASQSASLGESVTITCLASQTIGTWLAWYQQKPGKSPQLLIYAATNLADGVPSRFSGSGSGTKFSFKISSLQAEDFVSYYCQQLYSTPFTFGSGTKLEIK | – | – | – | EC50 [1]: 5.39 µg/mL; Kd [2]: 28.1 nM; koff [2]: 0.00038 s⁻¹; kon [2]: 13000 M⁻¹ s⁻¹ |
| 3H5 (antibody, human IgG1, V domains shown) VH: QVQLKESGPGLVAPSQSLSITCTVSGFSLTSYGVSWVRQPPGKGLEWLGVIWGDGSTNYHSALISRLSISKDNSKSQVFLKLNSLQTDDTATYYCAKPRWDDYAMDYWGQGTSVTVSS VL: DIQMTQTTSSLSASLGDRVTISCRASQDISNYLNWYQQKPDGTVKLLIYYTSRLHSGVPSRFSGSGSGTDYSLTISNLEQEDIATYFCQQGNTLWTFGGGTKLEIK | – | – | 0.008 s⁻¹ | – |
| 27H5 (antibody, human IgG1, V domains shown) VH: QVQLKESGPGLVAPSQSLSITCTVSGFSLTSYGVSWVRQPPGKGLEWLGVIWGDGNTNYHSALISRLSISKDNSKSQVFLKLNSLQTDDTATYYCARTNWDGWFAYWGQGTLVTVSA VL: DIVMTQSHKFMSTSVGDRVSITCKASQDVGTAVAWYQQKPGQSPKLLIYWASTRHTGVPDRFTGSGSGTDFTLTISNVQSEDLADYFCQQYRSYPLGTFGGGTKLEIK | – | – | 0.1 s⁻¹ | – |
